Here are results for one protein from article PMC7518877, “The prefusion structure of herpes simplex virus glycoprotein B” (Science Advances, 2020).

This data set deals with the molecule itself. The data set can be described thus: cryo-EM structure; electron cryo tomography and sub-volume averaging of gB H516P on purified extracellular vesicles; vesicles in 20 mM Hepes (pH 8), 150 mM NaCl; 46,067 sub-volumes, C3 symmetrised; ectodomain 9.0 Å; domains of the postfusion crystal structure fitted as rigid bodies and by MD-based flexible fitting.

B1: HSV-1 glycoprotein B H516P, full-length, membrane-anchored, on extracellular vesicles (natural protein)
chain: not shown
notes: glycoprotein B (gB) of herpes simplex virus 1, full length with membrane anchor and cytoplasmic domain, gene in plasmid pEP98; Trimer embedded in the vesicle membrane; prefusion (compact) conformation; also called gB H516P; H516P gB variant; source: BHK-21 cells, transiently transfected; on extracellular vesicles harvested from the supernatant by differential centrifugation
As for B1, the “stoichiometry N” value worked out at 3.
